Five molecules from patent US20250002562A1 (Scripps Research, published 2025) can be followed below.

The target in this experiment is SARS-CoV2 RBD antigen (Genscript) (SARS-CoV2, UniProt P0DTC2 319-541). Briefly: ELISA on RBD antigen, human IgG at 1 µg/mL, O.D. 450 nm.

B1: SKAI-DS1 (antibody, V domains shown)
VH: EVQLLESGGGLVQTGGSLRLSCAASGFTFSDYAMSWVRQAPGKGLEWVSWIYSNDGNKYYADSVKGRFTISRDNSKNTLYLQMNSLRAEDTAVYYCARFPVPSWRNTWSSYDAMDVWGQGTLVTV
VL: QSVLTQPPSASGTPGRRVTISCTGSSSNIGSNYVSWYQQLPGTAPKLLIYSDSNRPSGVPDRFSGSKSGTSASLAISGLRSEDEADYYCGTWDASLSGYVFGGGTKLTVL
notes: also called SKAI-DS1 human IgG antibody
For B1, the binding result is given as “binds”.

B2: SKAI-DS66 (antibody, V domains shown)
VH: EVQLLESGGGLVQPGGSLRLSCAASGFTFSDYAMSWVRQAPGKGLEWVSAIYPGGGSTYYADSVKGRFTISRDNSKNTLYLQMNSLRAEDTAVYYCARNLFGFDYWGQGTLVTV
VL: QSVLTQPPSASGTPGQRVTISCTGSSSNIGSNAVYWYQQLPGTAPKLLIYDDSNRPSGVPDRFSGSKSGTSASLAISGLRSEDEADYYCGSWDDSLSAYVFGGGTKLTVL
notes: also called SKAI-DS66 human IgG antibody
In the case of B2, the binding result is reported as “binds”.

B3: SKAI-DS3 (antibody, V domains shown)
VH: EVQLLESGGGLVQPGGSLRLSCAASGFTFSDYSMSWVRQAPGKGLEWVSAISSDSSSTYYADSVKGRFTISRDNSENTLYLQMNSLRAEDTAVYYCAKAILRCIPLGCYYADAMDVWGQGTLVTV
VL: QSVLTQPPSASGTPGQRVTISCTGSSSNIGSNDVTWYQQLPGTAPKLLIYADSKRPSGVPDRFSGSKSGTSASLAISGLRSEDEADYYCGAWDYSLSAYVFGGGTKLTVL
notes: also called SKAI-DS3 human IgG antibody
As to B3, the binding result is on record as “no binding (tested: 1 µg/mL)”.

B4: SKAI-DS15 (antibody, V domains shown)
VH: EVQLLESGGGLVQPGGSLRLSCAASGFTFSDYDMSWVRQAPGKGLEWVSMIYSGSSSKYYADSVKGRFTISRDNSKNTLYLQMNSLRAEDTAVYYCARVTGTCHSGSCYYSDAMDVWGQGTLVTV
VL: QSVLTQPPSASGTPGQRVTISCSGSSSNIGSNDVNWYQQLPGTAPKLLIYDDSNRPSGVPDRFSGSKSGTSASLAISGLRSEDEADYYCGAWDDSLSGYVFGGGTKLTVL
notes: also called SKAI-DS15 human IgG antibody
For B4, the binding result is recorded as “no binding (tested: 1 µg/mL)”.

B5: SKAI-DS64 (antibody, V domains shown)
VH: EVQLLESGGGLVQPGGSLRLSCAASGFTFSDYSMSWVRQAPGKGLEWVSGIYHSDGSKYYADSVKGRFTISRDNSKNTLYLQMNSLRAEDTAVYYCARFDPVFDYWGQGTLVTV
VL: QSVLTQPPSASGTPGQRVTISCSGSSSNIGSNAVSWYQQLPGTAPKLLIYDNNHRPSGVPDRFSGSKSGTSASLAISGLRSEDEADYYCGSWDDSLNAYVFGGGTKLTVL
notes: also called SKAI-DS64 human IgG antibody
For B5, the binding result is recorded as “binds”.
